The term stoichiometry N denotes a count of units in the complex or per binding partner.

The record followed here is PMC4687139, “The secreted L-arabinose isomerase displays anti-hyperglycemic effects in mice” (Microbial Cell Factories, 2015).

Data set [1] has as its target T1, secreted L-arabinose isomerase (L-AI) from L. sakei 23 K, purified from L. lactis MRS40 (Latilactobacillus sakei, UniProt Q38UH2).
T1 construct: gene araA; araA fused behind SPUsp45 signal peptide and LEISSTCDA propeptide (pSEC:LEISS:araA); secreted by Lactococcus lactis NZ9000 htrA clpP (MRS40), purified from supernatant; about 56 kDa monomer, homotetramer
T1 sequence (Q38UH2 2-474 limits assumed): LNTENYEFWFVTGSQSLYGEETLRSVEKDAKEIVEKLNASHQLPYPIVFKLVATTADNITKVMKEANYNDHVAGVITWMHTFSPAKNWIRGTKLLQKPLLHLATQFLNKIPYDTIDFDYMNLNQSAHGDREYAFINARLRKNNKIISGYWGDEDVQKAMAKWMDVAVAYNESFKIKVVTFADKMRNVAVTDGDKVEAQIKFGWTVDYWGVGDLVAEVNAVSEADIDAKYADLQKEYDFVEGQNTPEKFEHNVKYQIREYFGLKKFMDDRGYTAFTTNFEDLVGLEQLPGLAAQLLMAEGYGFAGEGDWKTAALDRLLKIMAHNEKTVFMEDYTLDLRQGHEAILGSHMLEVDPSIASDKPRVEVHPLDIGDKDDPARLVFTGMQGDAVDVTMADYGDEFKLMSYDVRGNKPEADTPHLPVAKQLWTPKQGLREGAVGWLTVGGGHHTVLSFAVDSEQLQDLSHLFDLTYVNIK
The data set is described as follows: bioconversion to D-tagatose, cysteine carbazole assay. Format: biochemical. The following applies: 10 g/l D-galactose, 0.3 mg/ml enzyme, pH 5.0, 6.0 and 7.0.

Data set [2] concerns the molecule itself. The data set is described as follows: SEC; gel filtration chromatography of the purified L-AI preparations, calibrated with protein markers of 669, 440, 232, 140 and 66 kDa; read together with SDS-PAGE (monomer about 56 kDa).

Take `OC[C@H]1OC(O)[C@H](O)[C@@H](O)[C@H]1O` (stereo partly drawn) [D-galactose]: the “bioconversion to D-tagatose, cysteine carbazole assay” value in data set [1] was “The purified secreted L-AI displayed a high efficiency to isomerize the D-galactose into D-tagatose”.

B1: L-arabinose isomerase (L-AI) from Lactobacillus sakei 23 K, produced intracellularly in E. coli (enzyme, UniProt Q38UH2 1-474, looked up)
chain: MLNTENYEFWFVTGSQSLYGEETLRSVEKDAKEIVEKLNASHQLPYPIVFKLVATTADNITKVMKEANYNDHVAGVITWMHTFSPAKNWIRGTKLLQKPLLHLATQFLNKIPYDTIDFDYMNLNQSAHGDREYAFINARLRKNNKIISGYWGDEDVQKAMAKWMDVAVAYNESFKIKVVTFADKMRNVAVTDGDKVEAQIKFGWTVDYWGVGDLVAEVNAVSEADIDAKYADLQKEYDFVEGQNTPEKFEHNVKYQIREYFGLKKFMDDRGYTAFTTNFEDLVGLEQLPGLAAQLLMAEGYGFAGEGDWKTAALDRLLKIMAHNEKTVFMEDYTLDLRQGHEAILGSHMLEVDPSIASDKPRVEVHPLDIGDKDDPARLVFTGMQGDAVDVTMADYGDEFKLMSYDVRGNKPEADTPHLPVAKQLWTPKQGLREGAVGWLTVGGGHHTVLSFAVDSEQLQDLSHLFDLTYVNIK
notes: L-arabinose isomerase (araA gene product) of Lactobacillus sakei 23 K; apparent molecular weight of the monomer about 56 kDa on SDS-PAGE; also called intracellular form; purified L-AI from E. coli; source: E. coli BL21 (strain MRS36, plasmid pMR36), over-expressed and purified as previously reported [30]
For the molecule B1, the “stoichiometry N” value in data set [2] is 4.

B2: secreted L-arabinose isomerase (L-AI) from Lactobacillus sakei 23 K, secreted by L. lactis MRS40 (pSEC:LEISS:araA) (enzyme)
chain: LEISSTCDAALNTENYEFWFVTGSQSLYGEETLRSVEKDAKEIVEKLNASHQLPYPIVFKLVATTADNITKVMKEANYNDHVAGVITWMHTFSPAKNWIRGTKLLQKPLLHLATQFLNKIPYDTIDFDYMNLNQSAHGDREYAFINARLRKNNKIISGYWGDEDVQKAMAKWMDVAVAYNESFKIKVVTFADKMRNVAVTDGDKVEAQIKFGWTVDYWGVGDLVAEVNAVSEADIDAKYADLQKEYDFVEGQNTPEKFEHNVKYQIREYFGLKKFMDDRGYTAFTTNFEDLVGLEQLPGLAAQLLMAEGYGFAGEGDWKTAALDRLLKIMAHNEKTVFMEDYTLDLRQGHEAILGSHMLEVDPSIASDKPRVEVHPLDIGDKDDPARLVFTGMQGDAVDVTMADYGDEFKLMSYDVRGNKPEADTPHLPVAKQLWTPKQGLREGAVGWLTVGGGHHTVLSFAVDSEQLQDLSHLFDLTYVNIK
In the case of B2, the “stoichiometry N” value in data set [2] came to 4.
